B1: S100A9 (ligand, human, UniProt P06702 1-114, looked up)
chain: MTCKMSQLERNIETIINTFHQYSVKLGHPDTLNQGEFKELVRKDLQNFLKKENKNEKVIEHIMEDLDTNADKQLSFEEFIMLMARLTWASHEKMHEGDEGPGHHHKPGLGEGTP
notes: One entry covers both the endogenous protein of human specimens and the protein expressed from transfected cDNA; also called MRP-14; calgranulin-B
B2: S100A8 (ligand, UniProt P05109 1-93, looked up)
chain: MLTELEKALNSIIDVYHKYSLIKGNFHAVYRDDLKKLLETECPQYIRKKGADVWFKELDINTDGAVNFQEFLILVIKMGVAAHKKSHEESHKE
notes: also called MRP-8; calgranulin A

Columns and labels:
[1] = biological target: T1, CD33/Siglec 3 chimeric fusion protein (ectodomain of CD33 fused to the Fc portion of human IgG1, with a … (Homo sapiens; human, UniProt P20138 18-259); assay: immunoprecipitation of BM cell lysates from MDS patients with CD33-fusion, then mass spectrometry (FIG. 3A)
T1 construct: extracellular domain; also called CD33-fusion; CD33-IgG; not shown: Fc region of human IgG1 (human Fc gamma) from the expression vector; C-terminal recognition site for E. coli biotin ligase
Description: Therefore, to identify potential ligand(s) for this receptor, a chimeric fusion protein with the ectodomain of CD33 and the Fe portion of human IgG (here on referred to as CD33-fusion) was produced. BM cell lysates from MDS patients were immunoprecipitated with the CD33-fusion followed by high throughput mass-spectrometric analysis on associated peptides. S100A9, an inflammatory signaling molecule known to activate MDSC, was among the most prominent protein bands identified (FIG. 3A). To confirm the specificity of the binding of this DAMP to CD33 both S100A8 and S100A9 transfectants were prepared in the rhabdomyosarcoma cell line SJCRH30, which lacks detectable expression of endogenous CD33, S100A8 or S100A9. […] To validate clinically the ligand specificity in MDS patients, the pull-down was compared with CD33-fusion from healthy PBMC and BM as well as MDS patients. As expected, the highest amount of S100A9 was precipitated from the BM of MDS patient specimens (FIG. 3F). Next, to understand the kinetics of S100A9 and CD33 interactions, SJCRH30 cells were transfected with either vector or CD33 and incubated with recombinant human (rh) S100A9 tagged with DDK ([…] epitope, same epitope as Flag).

[2] = biological target: T2, CD33 (Siglec 3) expressed in cells (human, UniProt P20138 18-364); assay: reverse immunoprecipitation: S100A9 IP from CD33/S100A9 co-transfected SJCRH30 lysate, blotted for CD33 (FIG. 3E)
T2 construct: whole, on cells; In the co-immunoprecipitations it stood in cell lysates; also called SJCRH30-CD33 cells; CD33 on MDS-MDSC

[3] = biological target: T1, CD33/Siglec 3 chimeric fusion protein …; assay: immunofluorescence staining of transfected SJCRH30 cells with CD33-fusion and anti-human IgG1-APC (FIG. 3B)
Protocol: Immunofluorescence was detected using a Zeiss automated upright fluorescence microscope and images captured by a Nikon camera with the Capture Program AxioVision. Detailed methods for immuno-staining on S100A9 transfected SJCRH30 cells have been published previously (Chen, X., et al. 2008. Blood 113(14):3226-34). Specifically, SJCRH30 cells, which lack detectable expression levels of both CD33 and S100A9, were transfected with either S100A9 or S100A8 (negative control) for 48-72 hours. After incubation with CD33-fusion for 30 min (2 μg/ml), 1×10⁴ cells were cytospinned onto slides and then stained with a secondary anti-human IgG1-APC before analysis by immunofluorescence microscopy. Similarly, SJCRH30 cells, stable-transfected with CD33, were incubated with rhS100A9 tagged with DDK for various time points and stained by the same methodology before analysis.
S100A9 is a native ligand for CD33. […] Therefore, to identify potential ligand(s) for this receptor, a chimeric fusion protein with the ectodomain of CD33 and the Fe portion of human IgG (here on referred to as CD33-fusion) was produced. BM cell lysates from MDS patients were immunoprecipitated with the CD33-fusion followed by high throughput mass-spectrometric analysis on associated peptides. S100A9, an inflammatory signaling molecule known to activate MDSC, was among the most prominent protein bands identified (FIG. 3A). […]

Row | Binder | binding result [1] | binding result [2] | binding result [3]
1 | B1 | binds | binds | –
2 | B2 | – | – | no binding (tested: 2 µg/ml CD33-fusion for 30 min)
